Laboratory results taken from paper doi:10.1101/812115.
Where two headings read alike, the source gives them in different places.

Key:
[1] = target: TDP-43 C-terminal domain (TDP-43CTD) (267-414) (UniProt Q13148); test: co-sedimentation
[2] = target: TDP-43 C-terminal domain (TDP-43CTD) (267-414) (UniProt Q13148); test: co-sedimentation; remark: listed apart in the source

Sequence of UniProt Q13148 (Q13148 267-414): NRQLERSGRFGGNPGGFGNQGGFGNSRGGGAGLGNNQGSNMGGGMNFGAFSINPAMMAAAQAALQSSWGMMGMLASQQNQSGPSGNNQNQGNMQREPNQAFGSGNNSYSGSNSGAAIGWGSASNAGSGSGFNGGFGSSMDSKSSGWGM

Row | stoichiometry N (GRN per TDP-43CTD) [1] | stoichiometry N (GRN per TDP-43CTD) [2] | Substance
1 | 1.1 |  | rGRN-5 (granulin-5, fully reduced) (domain or fragment)
2 | 0.75 | 0.73 | GRN-5 (granulin-5, oxidized) (domain or fragment)
